# Where “and” joins values, the source holds several entries; their conditions need not be identical. Equal entries are not always repeated.
# How the values were obtained:
# [1] = target: LMP-1 transmembrane helix 1 synthetic peptide (TM1) (Epstein-Barr virus); assay: AUC
# [2] = target: Latent Membrane Protein 1 D150A, full length (Epstein-Barr virus) (UniProt P03230)
# [3] = target: Latent Membrane Protein 1 D150A, full length (Epstein-Barr virus) (UniProt P03230); remark: listed apart in the source
# [4] = target: LMP-1 TM5 D150A synthetic peptide (Epstein-Barr virus); assay: AUC
substance,measurement,setting,value
LMP-1 transmembrane helix 1 synthetic peptide (TM1),stoichiometry N,[1],2 and 4
"Latent Membrane Protein 1 D150A, full length (from UniProt P03230 1-386) (natural protein)","p65 nuclear translocation in HEp2 cells, % of exp + cells with nuc p65 (TR > 1)",[2],38%
same,"NFκB luciferase reporter assay in HEp2 cells, luciferase against empty vector",[3],1.2 times
LMP-1 TM5 D150A synthetic peptide,stoichiometry N,[4],2

# Source: article PMC3192311
